From article PMC6448830 (2019) come the findings set out here.

What all share (test): SPR
For orientation: SPR reads the build-up and loss of mass on a sensor chip optically.

For experiment [1], the target named is T1, human 2B4-Fc fusion protein (human, UniProt Q9BZW8 22-229).
T1 chain: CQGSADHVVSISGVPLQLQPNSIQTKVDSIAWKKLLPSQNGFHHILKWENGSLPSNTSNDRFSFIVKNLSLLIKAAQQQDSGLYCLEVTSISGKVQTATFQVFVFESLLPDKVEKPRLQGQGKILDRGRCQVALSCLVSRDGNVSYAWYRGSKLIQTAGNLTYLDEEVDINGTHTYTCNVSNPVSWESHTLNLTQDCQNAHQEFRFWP

The target of experiment [2] is T1, human 2B4-Fc fusion protein.
The target of experiment [3] is T2, A. trivirgatus 2B4-Fc fusion protein (Aotus trivirgatus).
T2 chain: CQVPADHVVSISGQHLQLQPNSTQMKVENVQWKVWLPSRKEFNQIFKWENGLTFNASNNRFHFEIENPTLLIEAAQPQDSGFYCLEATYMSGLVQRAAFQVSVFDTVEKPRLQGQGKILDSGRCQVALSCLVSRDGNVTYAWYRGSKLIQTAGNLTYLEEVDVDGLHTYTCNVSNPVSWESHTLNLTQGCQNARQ

B1: human CD48-Fc fusion protein (Fc fusion)
chain: QGHLVHMTVVSGSNVTLNISESLPENYKQLTWFYTFDQKIVEWDSRKSKYFESKFKGRVRLDPQSGALYISKVQKEDNSTYIMRVLKKTGNEQEWKIKLQVLDPVPKPVIKIEKIEDMDDNCYLKLSCVIPGESVNYTWYGDKRPFPKELQNSVLETTLMPHNYSRCYTCQVSNSVSSKNGTVCLSPPCTLARS
modifications: biotin (biotinylated hCD48-Fc in the blocking assays)
Broadly, the koff is the rate constant with which the complex falls apart. A lower koff goes with a long-lived complex. A word on the Kd: it is a measure of binding affinity in units of concentration. High values mean weaker binding, low ones tighter binding. B1 registered a koff in experiment [1] of 0.0224 s⁻¹. The same molecule had a Kd in experiment [2] of 0.023 µM.

B2: A. trivirgatus CD48-Fc fusion protein (Fc fusion)
chain: TSIQGNSVDVINAISGGNVTLNISESLPENVREITWFCTYHQKIADWDVKRLKYFDNKFKGRVRLDYQSGALYISKIQKEDANIYIMRVLKETMYEQEWKIRLQVFDPVPKPDIKIEKTAKVEDDCYLKLSCVIPDESVNYTWYGDKEPFPKEFQSGVLETTLKSQDYSRCYTCQVSNPVSSKNDTVCFS
modifications: biotin (biotinylated host CD48-Fc in the blocking ELISA)
As to B2, the koff in experiment [3] turned out to be 0.000489 s⁻¹.
